Usually stoichiometry N stands for the number of molecules, sites or subunits per partner or assembly.

Like-named read-outs stand apart in the source and are kept apart here.

For three molecules, stoichiometry N and stoichiometry N (PduL dimers per PduA trimer of hexamers) results are on record in doi:10.1101/2022.12.30.522206.

What all share (assay): native gel or EMSA
For experiment [1], the target named is PduA* (PduA with a C-terminal 23 residue extension) (Salmonella typhimurium LT2).
Experiment [2] concerns the target PduA*(A63R) (Salmonella typhimurium LT2).
Experiment [3] deals with PduA* (PduA with a C-terminal 23 residue extension) (Salmonella typhimurium LT2). The source holds these as a separate data set.

“PduA* (PduA with a C-terminal 23 residue extension) (natural protein)”: the stoichiometry N in experiment [1] turned out to be 3 hexamers.
On to PduA*(A63R) (natural protein), for which the stoichiometry N in experiment [2] was 3 hexamers.

B1: PduL (enzyme)
chain: MDKQQLETTVTKVLDEMRERPIPLGISNRHIHLCAEDYDRLFPNHPISEKKELLQPGQYAADQTVTLVGPKGQLKNVRLLGPLRSTSQVEISRTDARTLGIAAPLRMSGSIEGTPGVRLISPFAELDLASGVIVAQRHIHMSPLDALILRVSHGDKVSVAINGDERRLIFDNVAVRVSPDMRLEMHIDTDEANAAGADNPQAFATLVSPR
Consider B1, for which, in experiment [3], the stoichiometry N turned out to be 1 and the stoichiometry N (PduL dimers per PduA trimer of hexamers) was found to be 3.
